# Molecular target: the molecule itself
# Experiment: dynamic light scattering (DLS); 50 µM S100A1, 37 °C, without divalent metal ions or with 0.5-10 mM Ca2+ or Zn2+; hydrodynamic diameter (volume distribution); monomer to dimer
protein,measurement,value
"S100A1 (natural protein, human, N-formylmethionine (fMet) at the N-terminus, theoretical mass 10,545.5 Da, measured 10,571.2 ± 1.4 Da (fMet at the N-terminus); also called recombinant S100A1; human S100A1; source: residual Ca2+ removed) GSELETAMETLINVFHAHSGKEGDKYKLSKKELKELLQTELSGFLDAQKDVDAVDKVMKELDENGDGEVDFQEYVVLVAALTVACNNFFWENS",stoichiometry N,2

# From publication PMC8699212, “Mechanism of Zn^2+ and Ca^2+ Binding to Human S100A1” (Biomolecules, 2021)
